Results reported in article PMC8729259 (RSC Chemical Biology, 2021).

Target: T1, His-SUMO-tagged SARS-CoV-2 nsp14 N-terminal ExoN domain (residues 1 to 289) (SARS-CoV-2)
T1 chain: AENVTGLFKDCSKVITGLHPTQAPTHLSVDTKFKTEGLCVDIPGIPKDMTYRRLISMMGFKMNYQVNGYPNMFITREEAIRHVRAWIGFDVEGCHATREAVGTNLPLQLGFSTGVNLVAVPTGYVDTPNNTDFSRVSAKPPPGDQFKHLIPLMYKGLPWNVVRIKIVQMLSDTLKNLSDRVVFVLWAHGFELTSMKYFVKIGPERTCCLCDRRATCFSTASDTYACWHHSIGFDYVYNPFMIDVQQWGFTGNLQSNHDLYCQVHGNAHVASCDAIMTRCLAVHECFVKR
Assay: MST
Conditions: both partners purified

B1: SARS-CoV-2 non-structural protein 10 (nsp10), full-length, without affinity tag (natural protein)
chain: AGNATEVPANSTVLSFCAFAVDAAKAYKDYLASGGQPITNCVKMLCTHTGTGQAITVTPEANMDQESFGGASCCLYCRCHIDHPNPKGFCDLKGKYVQIPTTCANDPVGFTLKNTVCTVCGMWKGYGCSCDQLREPMLQ
Kd: 900 ± 300 nM
